Assay results taken from paper PMC4748814.
Substitutions are numbered along the chain they refer to.

Columns and labels:
[1] = test system: PNPase S437-9A (active site mutant); assay: BLI; conditions: EMSA: 20 mM Tris pH 7.5, 100 mM NaCl, 1 mM MgCl2, 1 mM DTT, 30 C, 0.2 uM RNA; BLI: same buffer + 1 mg/mL acetylated BSA; ITC: 20 mM Tris-HCl pH 7.5, 1 mM …
PNPase [2] = assay: BLI; conditions: EMSA: 20 mM Tris pH 7.5, 100 mM NaCl, 1 mM MgCl2, 1 mM DTT, 30 C, 0.2 uM RNA; BLI: same buffer + 1 mg/mL acetylated BSA; ITC: 20 mM Tris-HCl pH 7.5, 1 mM …
PNPase [3] = target: T1, PNPase (UniProt P05055); assay: ITC; conditions: EMSA: 20 mM Tris pH 7.5, 100 mM NaCl, 1 mM MgCl2, 1 mM DTT, 30 C, 0.2 uM RNA; BLI: same buffer + 1 mg/mL acetylated BSA; ITC: 20 mM Tris-HCl pH 7.5, 1 mM …
T1 sequence: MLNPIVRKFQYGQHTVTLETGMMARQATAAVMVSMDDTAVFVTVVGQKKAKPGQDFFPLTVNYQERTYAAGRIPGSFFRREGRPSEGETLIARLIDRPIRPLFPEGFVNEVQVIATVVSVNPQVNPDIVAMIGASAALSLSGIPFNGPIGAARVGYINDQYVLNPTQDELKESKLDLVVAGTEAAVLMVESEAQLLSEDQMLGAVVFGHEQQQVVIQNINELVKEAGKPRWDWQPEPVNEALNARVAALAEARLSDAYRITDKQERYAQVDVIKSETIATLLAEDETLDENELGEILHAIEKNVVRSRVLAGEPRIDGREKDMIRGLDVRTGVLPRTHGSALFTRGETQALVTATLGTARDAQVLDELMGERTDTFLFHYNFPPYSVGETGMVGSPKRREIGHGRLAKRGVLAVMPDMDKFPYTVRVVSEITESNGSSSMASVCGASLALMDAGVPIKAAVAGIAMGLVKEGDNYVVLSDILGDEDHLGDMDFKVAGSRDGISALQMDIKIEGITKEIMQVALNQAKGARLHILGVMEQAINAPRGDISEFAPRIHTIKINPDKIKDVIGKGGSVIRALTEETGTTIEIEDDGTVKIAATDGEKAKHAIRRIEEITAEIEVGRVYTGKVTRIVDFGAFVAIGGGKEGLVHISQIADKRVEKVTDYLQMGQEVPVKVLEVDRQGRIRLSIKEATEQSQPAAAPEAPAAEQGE

PNPase [4] = target: T1, PNPase; assay: BLI; conditions: EMSA: 20 mM Tris pH 7.5, 100 mM NaCl, 1 mM MgCl2, 1 mM DTT, 30 C, 0.2 uM RNA; BLI: same buffer + 1 mg/mL acetylated BSA; ITC: 20 mM Tris-HCl pH 7.5, 1 mM …
[5] = target: T2, PNPase S437-9A (active site mutant) S437A;S438A;S439A (UniProt P05055); assay: BLI; conditions: EMSA: 20 mM Tris pH 7.5, 100 mM NaCl, 1 mM MgCl2, 1 mM DTT, 30 C, 0.2 uM RNA; BLI: same buffer + 1 mg/mL acetylated BSA; ITC: 20 mM Tris-HCl pH 7.5, 1 mM …
T2 sequence: T1 sequence with S437A, S438A, S439A

Hfq = Hfq (UniProt P0A6X3); assay: EMSA; conditions: EMSA: 20 mM Tris pH 7.5, 100 mM NaCl, 1 mM MgCl2, 1 mM DTT, 30 C, 0.2 uM RNA; BLI: same buffer + 1 mg/mL acetylated BSA; ITC: 20 mM Tris-HCl pH 7.5, 1 mM …
Hfq, sequence (P0A6X3 whole entry): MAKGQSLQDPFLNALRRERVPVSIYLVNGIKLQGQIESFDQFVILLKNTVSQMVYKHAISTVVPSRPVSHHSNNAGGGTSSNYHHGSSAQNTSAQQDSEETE

PNPase [6] = target: T1, PNPase; assay: EMSA; conditions: EMSA: 20 mM Tris pH 7.5, 100 mM NaCl, 1 mM MgCl2, 1 mM DTT, 30 C, 0.2 uM RNA; BLI: same buffer + 1 mg/mL acetylated BSA; ITC: 20 mM Tris-HCl pH 7.5, 1 mM …
PNPase delta-S1 = target: T3, PNPase delta-S1 (UniProt P05055); assay: EMSA; conditions: EMSA: 20 mM Tris pH 7.5, 100 mM NaCl, 1 mM MgCl2, 1 mM DTT, 30 C, 0.2 uM RNA; BLI: same buffer + 1 mg/mL acetylated BSA; ITC: 20 mM Tris-HCl pH 7.5, 1 mM …
T3 sequence: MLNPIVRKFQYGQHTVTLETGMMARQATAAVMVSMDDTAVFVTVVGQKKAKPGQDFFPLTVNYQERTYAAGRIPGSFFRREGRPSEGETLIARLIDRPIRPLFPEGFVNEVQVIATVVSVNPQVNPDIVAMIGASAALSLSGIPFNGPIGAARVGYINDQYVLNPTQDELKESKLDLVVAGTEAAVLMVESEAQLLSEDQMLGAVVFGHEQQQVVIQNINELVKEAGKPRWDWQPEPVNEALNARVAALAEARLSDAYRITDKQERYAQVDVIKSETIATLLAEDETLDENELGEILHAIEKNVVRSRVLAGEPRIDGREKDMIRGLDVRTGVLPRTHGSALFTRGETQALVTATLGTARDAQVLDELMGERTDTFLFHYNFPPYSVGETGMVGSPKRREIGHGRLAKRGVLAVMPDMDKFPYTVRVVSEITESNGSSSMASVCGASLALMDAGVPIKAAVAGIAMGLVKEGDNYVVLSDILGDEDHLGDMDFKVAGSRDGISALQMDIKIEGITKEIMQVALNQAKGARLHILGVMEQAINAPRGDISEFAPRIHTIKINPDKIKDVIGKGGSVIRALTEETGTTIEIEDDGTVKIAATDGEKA

[7] = target: PNPase;Hfq (Escherichia coli K-12 MG1655 derivative?;Escherichia coli?) (UniProt P05055+P0A6X3); assay: EMSA; conditions: EMSA: 20 mM Tris pH 7.5, 100 mM NaCl, 1 mM MgCl2, 1 mM DTT, 30 C, 0.2 uM RNA; BLI: same buffer + 1 mg/mL acetylated BSA; ITC: 20 mM Tris-HCl pH 7.5, 1 mM …
PNPase;Hfq (Escherichia coli K-12 MG1655 derivative?;Escherichia coli?), sequence (P0A6X3 whole entry, one chain of several): as the sequence (P0A6X3 whole entry) above

PNPase delta-KH delta-S1 = target: T4, PNPase delta-KH delta-S1 (UniProt P05055); assay: EMSA; conditions: EMSA: 20 mM Tris pH 7.5, 100 mM NaCl, 1 mM MgCl2, 1 mM DTT, 30 C, 0.2 uM RNA; BLI: same buffer + 1 mg/mL acetylated BSA; ITC: 20 mM Tris-HCl pH 7.5, 1 mM …
T4 sequence: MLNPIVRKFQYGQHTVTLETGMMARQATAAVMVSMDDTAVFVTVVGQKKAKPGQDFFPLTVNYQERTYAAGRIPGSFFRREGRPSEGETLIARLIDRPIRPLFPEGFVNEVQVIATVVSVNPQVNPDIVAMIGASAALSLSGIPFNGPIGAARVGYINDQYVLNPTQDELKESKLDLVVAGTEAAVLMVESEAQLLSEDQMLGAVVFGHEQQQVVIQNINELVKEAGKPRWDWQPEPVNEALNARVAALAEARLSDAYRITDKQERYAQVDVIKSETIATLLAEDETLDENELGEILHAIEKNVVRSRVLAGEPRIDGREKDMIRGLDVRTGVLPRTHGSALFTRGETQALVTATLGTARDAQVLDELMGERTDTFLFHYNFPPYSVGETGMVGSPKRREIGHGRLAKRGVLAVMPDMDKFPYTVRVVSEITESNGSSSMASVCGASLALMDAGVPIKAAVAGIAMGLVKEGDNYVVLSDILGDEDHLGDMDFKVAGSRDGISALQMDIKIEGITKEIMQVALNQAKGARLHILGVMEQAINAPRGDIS

[8] = target: T2, PNPase S437-9A (active site mutant) S437A;S438A;S439A; assay: EMSA; conditions: EMSA: 20 mM Tris pH 7.5, 100 mM NaCl, 1 mM MgCl2, 1 mM DTT, 30 C, 0.2 uM RNA; BLI: same buffer + 1 mg/mL acetylated BSA; ITC: 20 mM Tris-HCl pH 7.5, 1 mM …
PNPase [9] = assay: ITC; conditions: no phosphate, 1 mM Mg2+, 30 C, N = 1.01, EMSA: 20 mM Tris pH 7.5, 100 mM NaCl, 1 mM MgCl2, 1 mM DTT, 0.2 uM RNA, BLI: same buffer + 1 mg/mL acetylated …, ITC: 20 mM Tris-HCl pH 7.5, 1 mM MgCl2

Row | Substance | binding (Hfq) | binding (PNPase [6]) | binding (PNPase delta-S1) | binding [7] | binding [8] | other results
1 | 5'-biotin RyhB (9U) | – | – | – | – | – | Kd [1]: 149 nM; Kd (PNPase [2]): 15.8 nM
2 | GCGAUCAGGAAGACCCUCGCGGAGAACCUGAAAGCACGACAUUGCUCACAUUGCUUCCAGUAUUACUUAGCCAGCCGGGUGCUGGCUUUU [RyhB (4U)] | – | – | – | – | – | Kd (PNPase [3]): 85 nM
3 | GCGAUCAGGAAGACCCUCGCGGAGAACCUGAAAGCACGACAUUGCUCACAUUGCUUCCAGUAUUACUUAGCCAGCCGGGUGCUGGCUUUUUUUUU [5'-biotin RyhB (9U)] | – | – | – | – | – | Kd (PNPase [4]): 15.8 nM; Kd [5]: 149 nM
4 | GCGAUCAGGAAGACCCUCGCGGAGAACCUGAAAGCACGACAUUGCUCACAUUGCUUCCAGUAUUACUUAGCCAGCCGGGUGCUGGCUUUUUUUUU [RyhB (9U)] | binds | binds | binds more weakly | binds | binds more weakly | binding (PNPase delta-KH delta-S1): binds more weakly
5 | GCUGAAAAACAUAACCCAUAAAAUGCUAGCUGUACCAGGAACCACCUCCUUAGCCUGUGUAAUCUCCCUUACACGGGCUUAUUUUUU [CyaR] | binds | binds | binds more weakly | binds | binds more weakly | –
6 | RyhB (4U) | – | – | – | – | – | Kd (PNPase [9]): 85 nM
